Test results as given in US20100272737A1 (AGENCY FOR SCIENCE TECHNOLOGY AND RESEARCH, published 2010).

Target: T1, Flag-tagged Cavβ3-subunit (rat, UniProt P54287 1-484)
T1 construct: whole, on cells; Flag-tagged in co-immunoprecipitation, pull-down and immunofluorescence; also called Flag-Cavβ3; N-Flag Cavβ3-subunits
Test: dissociation of β3 from GST-AID by peptide, Western blot of the supernatant
Experimental: B, BARP displaces the Caᵥβ3-subunit from the AID. In vivo expressed Caᵥβ3-subunits were pulled-down using a GST-AID fusion protein and the complex then incubated with increasing amounts of AID or BARP Domain I peptide. The Caᵥβ3-subunit displaced from the GST-AID was monitored by Western blot.
Preparation of cell homogenates lysed into a buffer containing (50 mM Tris-HCl (pH 7.5), 100 mM NaCl, 1 mM MgCl₂, 0.5% Triton) supplemented with proteases inhibitors, co-immunoprecipitation and Western blot analysis using the generated antibodies together with monoclonal anti-FLAG(M2; Sigma), rabbit anti-GST (Santa Cruz Biotechnology), rabbit Caᵥ1.2 (Chemicon International), Caᵥ2.1(Alomone labs), Caᵥ2.2 (Calbiochem), Caᵥβ₃ (Alomone labs) antibodies were carried out essentially as described in. Brain, skeletal muscle and heart lysates were purchased from Zyagen Laboratories. In vitro synthesized BARP was produced by using the TNT quick coupled transcription/translation systems (Promega). For the dissociation experiments, an AID peptide ([…]) and a BARP domain I peptide ([…]) were synthesized (Mimotopes). […] After extensive wash to remove unassociated β₃-subunits, increasing concentration of peptide (30, 60, 300, 600 nM) were added. After an incubation of four hours, 10% of the supernatant containing the dissociated β₃-subunit were loaded on SDS-PAGE and subjected to Western blot analysis. […]

T1 sequence (P54287 whole entry): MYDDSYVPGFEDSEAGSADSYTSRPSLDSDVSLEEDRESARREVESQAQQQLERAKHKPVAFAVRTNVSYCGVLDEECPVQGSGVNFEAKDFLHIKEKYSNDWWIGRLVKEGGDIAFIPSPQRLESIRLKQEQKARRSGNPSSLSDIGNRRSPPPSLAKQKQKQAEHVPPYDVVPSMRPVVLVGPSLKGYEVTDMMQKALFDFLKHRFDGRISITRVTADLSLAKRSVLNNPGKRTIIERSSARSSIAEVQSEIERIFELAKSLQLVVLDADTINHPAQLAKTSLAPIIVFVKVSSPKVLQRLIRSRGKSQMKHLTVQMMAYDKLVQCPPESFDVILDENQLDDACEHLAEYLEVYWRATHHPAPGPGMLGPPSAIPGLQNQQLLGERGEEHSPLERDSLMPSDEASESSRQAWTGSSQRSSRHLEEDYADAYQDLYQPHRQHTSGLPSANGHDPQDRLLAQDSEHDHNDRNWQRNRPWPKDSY

B1: BARP domain I peptide (peptide)
peptide: SYRDLWSLRASLELHAATASD
notes: Synthesized by Mimotopes; also called AID-like BARP peptide
B1: binds.
